Common to all, as to assay: cell-based or functional assay
Assay [1] deals with HA of H5N1 virus strain B7 (avian influenza virus H5N1).
Assay [2] deals with HA of H5N1 virus strain F2 (avian influenza virus H5N1).
Assay [3] deals with HA of H5N1 virus strain H2 (avian influenza virus H5N1).
Assay [4] concerns the target HA of H5N1 virus strain B8 (avian influenza virus H5N1).
Assay [5] has as its target HA of H5N1 virus strain B5 (avian influenza virus H5N1).
In assay [6] the target is HA of virus strain CK/IDN/2A/04 (avian influenza virus).
Assay [7] deals with HA of H5N1 virus strain A5 (avian influenza virus H5N1).
Assay [8] concerns the target HA of virus strain DK/IDN/MS/04 (avian influenza virus).
Assay [9] concerns the target HA of H5N1 virus strain A8 (avian influenza virus H5N1).
The target in assay [10] is HA of H5N1 virus strain G1 (avian influenza virus H5N1).
Assay [11] concerns the target HA of H5N1 virus strain A1 (avian influenza virus H5N1).
Assay [12] addresses HA of H5N1 virus strain C2 (avian influenza virus H5N1).
In assay [13] the target is HA of H5N1 virus strain B3 (avian influenza virus H5N1).
For assay [14], the target named is HA of virus strain CP Heron/HK/18/05 (avian influenza virus).
In assay [15] the target is HA of H5N1 virus strain D2 (avian influenza virus H5N1).
Assay [16] has as its target HA of H5N1 virus strain F3 (avian influenza virus H5N1).
Assay [17] deals with HA of H5N1 virus strain E2 (avian influenza virus H5N1).
The target in assay [18] is HA of H5N1 virus strain H1 (avian influenza virus H5N1).
For assay [19], the target named is HA of H5N1 virus strain A2 (avian influenza virus H5N1).
Assay [20] addresses HA of H5N1 virus strain B6 (avian influenza virus H5N1).
For assay [21], the target named is HA of virus strain CK/HK/213/03 (avian influenza virus).
Assay [22] has as its target HA of H5N1 virus strain E1 (avian influenza virus H5N1).
Assay [23] concerns the target HA of H5N1 virus strain B1 (avian influenza virus H5N1).
Assay [24] deals with HA of H5N1 virus strain B2 (avian influenza virus H5N1).
For assay [25], the target named is HA of H5N1 virus strain B4 (avian influenza virus H5N1).
Assay [26] addresses HA of virus strain BhGs/QH/15/05 (avian influenza virus).
Assay [27] addresses HA of H5N1 virus strain D1 (avian influenza virus H5N1).
Assay [28] deals with HA of H5N1 virus strain C3 (avian influenza virus H5N1).
For assay [29], the target named is HA of virus strain Oriental Magpie Robin/HK/366/2006 (avian influenza virus).
The target of assay [30] is HA of H5N1 virus strain A3 (avian influenza virus H5N1).
Assay [31] has as its target HA of H5N1 virus strain A7 (avian influenza virus H5N1).
In assay [32] the target is HA of H5N1 virus strain A6 (avian influenza virus H5N1).
Assay [33] addresses HA of H5N1 virus strain C1 (avian influenza virus H5N1).
Assay [34] has as its target HA of H5N1 virus strain A4 (avian influenza virus H5N1).
Assay [35] addresses H5 virus strains (thirty-four strains of H5N1 viruses).
The target in assay [36] is non-H5 viruses (14 strains; H1~H13, Chicken NDV).

B1: 10F7 single chain antibody (scFv)
scFv: QVQLQQPGAELVKPGASVKLSCKASGYTFTSYWMHWVKQRPGQGLEWIGEIDPSDSYTNYNQKFKGKATLTVDKSSSTAYMQLSSLTSEDSAVYYCARGGTGDFHYAMDYWGQGTSVTVSSGGGGSDILMTQSPSSMSVSLGDTVSITCHASQGISSNIGWLQQKPGKSFKGLIYHGTNLEDGVPSRFSGSGSGADYSLTISSLESEDFADYYCVQYVQFPYTFGGGTKLEIKR
As to B1, the HI titer (n) (n (dilution 2^n)) was 7 in assay [1]; 0 in [2]; 0 in assay [3]; 7 in [4]; 0 in assay [5]; > 8 in assay [7]. Also, the HI titer (n) (n (dilution 2^n)) is 6 in [9]; 0 in [10]; > 8 in [11]; 2 in assay [12]; > 8 in assay [13]; 2.5 in assay [15]. The HI titer (n) (n (dilution 2^n)) was 0 in [16]; 0 in [17]; < 1 in assay [18]; > 8 in [19]; 7 in assay [20]; 0 in [22]. Besides, the HI titer (n) (n (dilution 2^n)) in assay [23] was 7; in assay [24], 0; in assay [25] it was > 8; in assay [27], 2.5; in assay [28] it was 1; in assay [30], > 8. Moreover, the HI titer (n) (n (dilution 2^n)) worked out at 6.5 in [31] and 7.5 in assay [32]. The neutralization test: dilution of 10F7 scFv (fold dilution) in [6] is 32; in assay [8], 16; in [14], 8; in assay [21], < 1; in assay [26] it was 16; in assay [29] it was < 1.

B2: 4D1 chimeric antibody (antibody, V domains shown)
VH: QVQLQQPGAELVKPGASVNLSCKASGYTFTSYWMHWVKQRPGQGLEWIGEIDPSDSFTTYNQNFKDRATLTVDKSSSTAYMQLRSLTSEDSAVYYCARGGPGDFRYAMDYWGQGTSVTVSS
VL: DILMTQSPSSMSVSLGDTVSITCHASQGISSNIGWLQQKPGKSFKGLIYHGTNLEDGVPSRFSGSGSGADYSLTISSLESEDFADYYCVQYVQFPYTFGGGTKLEIKR
With B2, the HI test result in [1] was found to be 7 n; in [2], 1 n; in assay [3], 1 n; in [4], 4 n; in [9], 5.5 n; in assay [10], 1 n. The HI test result in assay [33] came out at 7.5 n; in assay [11] it was 5 n; in assay [12] it was 6 n; in [16], 1 n; in assay [17], 7.5 n; in [18] it was 1 n. Moreover, the HI test result is 5.5 n in [19]; 6.5 n in assay [20]; 5.5 n in [22]; > 8 n in assay [23]; 5.5 n in assay [25]; 5 n in [27]. Moreover, the HI test result in assay [28] worked out at 4 n; in [30], 5.5 n; in assay [34] it was 6 n; in [31], 4 n; in assay [32], 4.5 n.

B3: 10F7 chimeric antibody (antibody, V domains shown)
VH: QVQLQQPGAELVKPGASVKLSCKASGYTFTSYWMHWVKQRPGQGLEWIGEIDPSDSYTNYNQKFKGKATLTVDKSSSTAYMQLSSLTSEDSAVYYCARGGTGDFHYAMDYWGQGTSVTVSS
VL: DILMTQSPSSMSVSLGDTVSITCHASQGISSNIGWLQQKPGKSFKGLIYHGTNLEDGVPSRFSGSGSGADYSLTISSLESEDFADYYCVQYVQFPYTFGGGTKLEIKR
For the molecule B3, the HI test result in assay [1] was 7 n; in [2], 2.5 n; in [3] it was 8 n; in assay [4] it was 4.5 n; in assay [9] it was 5.5 n; in assay [10], 6.5 n. For the same molecule, the HI test result was > 8 n in [33]; 6.5 n in assay [11]; 6 n in assay [12]; > 8 n in assay [16]; > 8 n in assay [17]; 5.5 n in assay [18]. Besides, the HI test result in [19] is 7 n; in [20], 6 n; in assay [22], 6 n; in [23] it was > 8 n; in assay [25], 6 n; in assay [27], 2.5 n. Further, the HI test result stood at 2.5 n in assay [28]; 6.5 n in [30]; 7 n in assay [34]; 5.5 n in assay [31]; 5 n in [32].

B4: monoclonal antibody 2F2 (antibody, V domains shown)
VH: QVQLKESGPGLVAPSQRLSITCTVSGFSLTGYGVHWIRQSPGKGLEWLGMIWAEGRTDYNSVLKSRLSINKDNSRSQVFLEMNSLQTDDTARYYCAREVITTEAWYFDVWGQGTSVTES
VL: DIVMTQSPATLSVTPGDRVSLSCRASQSISDYLYWYQQKSHESPRLLIKYASQSISGIPSRFSGSGSGSDFTLTINSVEPEDVGMYYCQNGHTFPLTFGAGTKLEIKR
In [35], B4 gave an HI assay: positive number/total virus number (of 34 strains) of 28. Further, the HI assay: positive number/total virus number (of 14 strains) in assay [36] was determined as 0.

B5: 4D1 single chain antibody (scFv)
scFv: QVQLQQPGAELVKPGASVNLSCKASGYTFTSYWMHWVKQRPGQGLEWIGEIDPSDSFTTYNQNFKDRATLTVDKSSSTAYMQLRSLTSEDSAVYYCARGGPGDFRYAMDYWGQGTSVTVSSGGGGSDILMTQSPSSMSVSLGDTVSITCHASQGISSNIGWLQQKPGKSFKGLIYHGTNLEDGVPSRFSGSGSGADYSLTISSLESEDFADYYCVQYVQFPYTFGGGTKLEIKRA
Consider B5, for which the HI titer (n) (n (dilution 2^n)) in [1] is > 8; in assay [2] it was 5; in [3] it was 4; in assay [4] it was > 8; in [5], 0; in assay [7], > 8. The HI titer (n) (n (dilution 2^n)) in assay [9] is > 8; in assay [10], 3.5; in [11], > 8; in assay [12] it was > 8; in assay [13] it was > 8; in [15], 7.5. Besides, the HI titer (n) (n (dilution 2^n)) in [16] is 3; in assay [17], 1; in assay [18], 6; in assay [19], > 8; in [20], > 8; in assay [22], 1. The HI titer (n) (n (dilution 2^n)) in assay [23] was > 8; in assay [24], 0; in [25], > 8; in assay [27], > 8; in assay [28], > 8; in assay [30], > 8. Moreover, the HI titer (n) (n (dilution 2^n)) was 6 in assay [31] and 7 in [32].

For the origin of these results see patent publication US20090068637A1.
